# Assay results as given in the RNAGym collection of RNA variant scans (doi:10.7554/elife.80360).
# B1: Hairpin Ribozyme (parent)
# chain: GUCCUCUUUCACGUGCGCGUGAAAGAGAGAAGUGAACCAGAGAAACACACGUUGUGGUAUAUUACCUGGUA
# Variants of: B1
# Assay: self-cleavage, relative activity (ratio to wild type); higher = more cleavage; co-transcriptional
row,Variant,self-cleavage
1,U62G G69C,0.217
2,U62G G69U,0.165
3,U62G G69A,0.0955
4,G56C,0.156
5,G56U,0.157
6,G56A,0.174
7,U55G A61U,0.0838
8,U55G A61C,0.21
9,G56A U67C,0.129
10,G56A U67G,0.104
11,U55C A64U,0.154
12,U58G U63G,0.104
13,G57A C66G,0.103
14,G57A C66U,0.2
15,G56U U63A,0.157
16,A59G U62G,0.167
17,A59C A64U,0.0804
18,U55G U58G,0.206
19,G57C C65G,0.154
20,A61C U67G,0.24
21,U62C U67C,0.121
22,U62C U67G,0.265
23,U55A A61U,0.214
24,U60C U63A,0.262

row,Variant,self-cleavage
1,G57A C65G,0.291
2,G57A C65A,0.222
3,A59U A71U,0.252
4,A59U A71G,0.156
5,A61G G68U,0.163
6,A61G G68A,0.275
7,A59G U67G,0.153
8,A59G U67A,0.311
9,G56A U58C,0.162
10,G56A U58A,0.0823
11,G56A U58G,0.274
12,U58A A59U,0.183
13,U58A A59C,0.252
14,G54U U70G,0.43
15,G54U U70C,0.569
16,G57C U60C,0.156
17,G57A A64U,0.119
18,U62A C65G,0.101
19,A59U U63G,0.218
20,A59U U63A,0.206
21,U58G U70G,0.575
22,U55A A59U,0.205
23,U62A U63C,0.113
24,U62A U63A,0.12

row,Variant,self-cleavage
1,U62A U63G,0.112
2,U58C C65A,1.11
3,U58C C65G,0.255
4,U55C U67C,0.172
5,U58A C65G,0.0985
6,U55A U63C,0.106
7,U55A U63A,0.0786
8,U60C U70A,1.29
9,A59C U63C,0.199
10,A59C U63G,0.164
11,G57C G68C,0.21
12,G57C G68A,0.195
13,A61C U70A,0.204
14,A61C U70G,0.146
15,A61C U62A,0.143
16,A61C U62G,0.102
17,A59C U60C,0.167
18,A61C A64G,0.185
19,A61C A64U,0.179
20,U62G C66A,0.207
21,U55G U62A,0.104
22,U55G U62C,0.161
23,U62A A64C,0.164
24,U55A C65A,0.204

row,Variant,self-cleavage
1,U58G C66G,0.379
2,A59U U67C,0.11
3,G56C U60G,0.111
4,U58G C65A,0.816
5,U58G C65U,0.412
6,A61U C65A,0.107
7,U55G U63A,0.346
8,A59U U70A,0.177
9,G56C U67C,0.138
10,U62C G68U,0.178
11,U62C C65G,0.132
12,A61G U67G,0.157
13,A61G U67C,0.113
14,A59G C65U,0.18
15,A61C U63G,0.12
16,A61C U63C,0.284
17,G57A G69U,0.121
18,G57A G69C,0.141
19,G56A U60C,0.219
20,G56A U60A,0.121
21,A61U A71C,0.468
22,A61U A71G,0.275
23,A59G A71U,0.106
24,A59G A71G,0.0933

row,Variant,self-cleavage
1,U55G G56A,0.125
2,U55A G56A,0.168
3,A61C C65U,0.148
4,U55G G57U,0.222
5,U60A U67A,0.198
6,U62G G68A,0.263
7,G57A U60G,0.21
8,U60C G69A,0.51
9,G57A G68C,0.207
10,G57A G68U,0.169
11,G56U A64C,0.177
12,U58G G69U,0.113
13,U58C U67C,0.205
14,U63A A71G,0.221
15,U63A A71U,0.182
16,A59G U70A,0.163
17,A59U A64C,0.149
18,A59U A64G,0.139
19,A61C G68C,0.153
20,A61C A71C,0.285
21,A61C A71U,0.164
22,A61U U62A,0.139
23,A59C U67C,0.123
24,A59C U67A,0.241

row,Variant,self-cleavage
1,G57C U58G,0.277
2,A61G A64G,0.141
3,G56A A59G,0.167
4,U55A U70C,0.311
5,U55A U70G,0.342
6,U60G A61G,0.205
7,A61G U63A,0.144
8,A61G U63C,0.253
9,A61G U63G,0.0586
10,U58A A64U,0.237
11,U58A A64C,0.143
12,A61U A64G,0.121
13,A61U A64C,0.197
14,A59C A71U,0.156
15,A59C C66A,0.0564
16,G56A U62A,0.182
17,G56A U62C,0.141
18,U58C A61U,0.38
19,G57C U70G,0.119
20,U58G A64C,0.163
21,U58G A64G,0.341
22,A61U U63C,0.0398
23,A61U U63G,0.187
24,G57A A71C,0.4

row,Variant,self-cleavage
1,G57A A71G,0.112
2,U62A C66G,0.188
3,U62A U70C,0.219
4,U58G U67G,0.173
5,G56C G68A,0.153
6,A59C G69U,0.131
7,A59C G69A,0.19
8,U62A A71G,0.211
9,U60C G68C,0.25
10,U58A G69U,0.175
11,U55A U60C,0.712
12,G57U U60G,0.177
13,U63A C65U,0.0803
14,U58C U60G,0.742
15,G57U U70C,0.075
16,U60C C65A,1.34
17,U55A U58G,0.183
18,U55A U58C,0.427
19,G56U A71U,0.177
20,G56U A71C,0.454
21,U55C C66U,0.157
22,A61G C65U,0.192
23,U63A A64C,0.0838
